Values quoted from earlier work in PMC11283454 (Nature Communications, 2024).

B1: scATE1: Saccharomyces cerevisiae ATE1 (protein, UniProt P16639 1-503, looked up)
Arginyl-tRNA--protein …: MSDRFVIWAPSMHNEPAAKCGYCHGNKGGNMDQLFALDSWAHRYMNKMDVVKIENCTIGSFVEHMDVATYDRMCNMGFRRSGKFLYKVDPLRNCCRLYTIRTAPQELNMTKELKKCISRFATRITSEDYCPAAVASSDFVGKIVNAEMNSKTFYTRFEPALYSEEKYHLFVKYQEKVHQDYNNSPKSFKRFLCDTPFGPEAVLGTQESWEQLNNWQRMKPGEKLKHMGPVHECYYYEGKLIAITVSDILPSGISSVYFIWDPDYSKWSLGKLSALRDLAIIQRTNLQYYYLGYYIEDCPKMNYKANYGAEVLDVCHSKYIPLKPIQDMISRGKLFVIGEEETKVTKELYLVDSETGRGEGFPTDNVVKYKNIAEEIYGVGGCAFKSANESALELKELYGIPYEEEDLDTIYHLKEHNGHAPNGIPNVVPGLLPLWELLDIMQSGKITDLEGRLFLFEIETEGIRPLINFYSEPPNVKKRICDVIRLFGFETCMKAVILYSEQM
Tm of scATE1: ~ 46 °C
